Experimental data: patent publication US20260266848A1, “COMPOSITIONS AND METHODS FOR DIAGNOSING AND TREATING DYSTONIA” (Duke University, priority 2023, published 2026)

What was measured:
WT MEF EVs = assay: Quantitative LC-MS/MS proteomics of EVs from ISRIB-treated WT MEF cultures; format: cell-based, mouse; design: key to ISRIB and DYT Parallel Direction / ISRIB and DYT Parallel Direction, Ctdsp1 / ISRIB and DYT Parallel Direction, Pcdh19 / ISRIB and DYT Parallel Direction, Tspan7 / ISRIB and DYT Parallel Direction, Myo1e / ISRIB and DYT Parallel Direction, Plpp3 / ISRIB and DYT Parallel Direction, Sh3bp4 / ISRIB and DYT Parallel Direction, Dnajc7 / ISRIB and DYT Parallel Direction, Drg1 / ISRIB and DYT Parallel Direction, Maea: YES = protein abundance effect similar to DYT/WT; details: EV protein abundance; for WT + ISRIB/WT Cohen's d: ISRIB-treated WT vs WT; for ISRIB and DYT Parallel Direction: WT + ISRIB vs WT, direction compared with DYT/WT
DYT-TOR1A MEF EVs = assay: Quantitative LC-MS/MS proteomics of EVs from drug-treated DYT-TOR1A MEF cultures (ritonavir, salubrinal); format: cell-based, mouse; design: key to RTV Corrective Direction / RTV Corrective Direction, Grwd1 / RTV Corrective Direction, Srrm2 / RTV Corrective Direction, Rbm17 / RTV Corrective Direction, Dcaf8 / RTV Corrective Direction, Edil3 / RTV Corrective Direction, Timp3 / RTV Corrective Direction, Heatr3 / RTV Corrective Direction, Brd4 / RTV Corrective Direction, P3h4 / RTV Corrective Direction, Pacsin3 / RTV Corrective Direction, Naa50 / RTV Corrective Direction, Lpar6 / RTV Corrective Direction, Ndrg1 / RTV Corrective Direction, Kntc1 / RTV Corrective Direction, Cdk11b / RTV Corrective Direction, Sumo1 / RTV Corrective Direction, Lsm4 / RTV Corrective Direction, Hmga2 / RTV Corrective Direction, Cstf1 / RTV Corrective Direction, Tes / RTV Corrective Direction, Sbno1 / RTV Corrective Direction, Unc119b / RTV Corrective Direction, Cfdp1 / RTV Corrective Direction, Sec61b: YES = protein abundance effect opposite to DYT/WT; details: EV protein abundance; for RTV Corrective Direction: DYT + RTV (ritonavir) vs DYT, direction compared with DYT/WT; for DYT + RTV/DYT Cohen's d: ritonavir (RTV)-treated DYT vs DYT

B1: Eif4g2 (protein, UniProt Q62448 1-906, looked up)
Eukaryotic translation …: MESAIAEGGASRFSASSGGGGSRGAPQHYPKTAGNSEFLGKTPGQNAQKWIPARSTRRDDNSAANNSANEKERHDAIFRKVRGILNKLTPEKFDKLCLELLNVGVESKLILKGVILLIVDKALEEPKYSSLYAQLCLRLAEDAPNFDGPAAEGQPGQKQSTTFRRLLISKLQDEFENRTRNVDVYDKRENPLLPEEEEQRAIAKIKMLGNIKFIGELGKLDLIHESILHKCIKTLLEKKKRVQLKDMGEDLECLCQIMRTVGPRLDHERAKSLMDQYFARMCSLMLSKELPARIRFLLQDTVELREHHWVPRKAFLDNGPKTINQIRQDAVKDLGVFIPAPMAQGRSDFFLEGPFMPPRMKMDRDPLGGLADMFGQMPGSGIGTGPGVIQDRFSPTMGRHRSNQLFNGHGGHIMPPTQSQFGEMGGKFMKSQGLSQLYHNQSQGLLSQLQGQSKDMPPRFSKKGQLNADEISLRPAQSFLMNKNQVPKLQPQITMIPPSAQPPRTQTPPLGQTPQLGLKTNPPLIQEKPAKTSKKPPPSKEELLKLTEAVVTDYLNSGNANDAVSGVREMRAPKHFLPEMLSKVIILSLDRSDEDKEKASSLISLLKQEGIATSDNFMQAFLNVLEQCPKLEVDIPLVKSYLAQFAARAIISELVSISELAQPLESGTHFPLFLLCLQQLAKLQDREWLTELFQQSKVNMQKMLPEIDQNKDRMLEILEGKGLSFLFPLLKLEKELLKQIKLDPSPQTIYKWIKDNISPKLHVDKGFVNILMTSFLQYISSEVSPPSDETDSSSAPSKEQLEQEKQLLLSFKPVMQKFLHDHVDLQVSALYALQVHCYNSSFPKGMLLRFFVHFYDMEIIEEEAFLAWKEDITQEFPGKGKALFQVNQWLTWLETAEEEESEEEAD
WT + ISRIB/WT Cohen's d (WT MEF EVs): −3.04
ISRIB and DYT Parallel Direction (WT MEF EVs): YES
RTV Corrective Direction (DYT-TOR1A MEF EVs): YES
DYT + RTV/DYT Cohen's d (DYT-TOR1A MEF EVs): 2.79

B2: Efemp1 (protein, UniProt Q8BPB5 18-493, looked up)
EGF-containing fibulin-like …: QYTEETITYTQCTDGYEWDPIRQQCKDIDECDIVPDACKGGMKCVNHYGGYLCLPKTAQIIVNNEHPQQETPAAEASSGATTGTVAARSMATSGVVPGGGFMASATAVAGPEVQTGRNNFVIRRNPADPQRIPSNPSHRIQCAAGYEQSEHNVCQDIDECTSGTHNCRTDQVCINLRGSFTCQCLPGYQKRGEQCVDIDECTVPPYCHQRCVNTPGSFYCQCSPGFQLAANNYTCVDINECDASNQCAQQCYNILGSFICQCNQGYELSSDRLNCEDIDECRTSSYLCQYQCVNEPGKFSCMCPQGYEVVRSRTCQDINECETTNECREDEMCWNYHGGFRCYPRNPCQDHYVLTSENRCVCPVSNTMCRELPQSIVYKYMSIRSDRSVPSDIFQIQATMIYANTINTFRIKSGNENGEFYLRQTSPVSAMLVLVKSLSGPREYIVDLEMLTVSSIGTFRTSSVLRLTIIVGPFSF
WT + ISRIB/WT Cohen's d (WT MEF EVs): 0.07
ISRIB and DYT Parallel Direction (WT MEF EVs): YES
RTV Corrective Direction (DYT-TOR1A MEF EVs): YES
DYT + RTV/DYT Cohen's d (DYT-TOR1A MEF EVs): −4.60

B3: Sec31a (protein, UniProt Q3UPL0 1-1230, looked up)
Protein transport protein …: MKLKEIDRTAMQAWSPAQNHPIYLATGTSAQQLDATFSTNASLEIFELDLSDPSLDMKSCATFSSSHRYHKLIWGPHKMDSKGDVSGVLIAGGENGNIILYDPSKIIAGDKEVVIAQKDKHTGPVRALDVNIFQTNLVASGANESEIYIWDLNNFATPMTPGAKTQPPEDISCIAWNRQVQHILASASPSGRATVWDLRKNEPIIKVSDHSNRMHCSGLAWHPDVATQMVLASEDDRLPVIQMWDLRFASSPLRVLENHARGILAVAWSMADPELLLSCGKDAKILCSNPNTGEVLYELPTNTQWCFDIQWCPRNPAVLSAASFDGRISVYSIMGGSIDGLRQKQVDKLSSSFGNLDPFGTGQPLPPLQIPQQSAQHSIVLPLKKPPKWIRRPVGASFSFGGKLVTFESVAVPLQQGAEQQRRQPVFISQVVTEKDFLNRSAQLQHAVQSQGFIGYCQKKIEASQTEFEKNVWSFLKVNFEEDSRGKYLELLGYRKEDLGQKIALALNKVDGPDVALKDSDQVAQSDGEESPAAEEQLLGERIKEEKQECDFLPSAGGTFNISVSGDIDGLITRALLTGNFESAVDLCLHDNRMADAIILAIAGGQELLAQTQKKYFAKSQSKITRLITAVVMKNWREIVESCDLKNWREALAAVLTYAKPDEFSALCDLLGTRLEREGDSLLRTQACLCYICAGNVERLVACWTKAQDGSSPLSLQDLIEKVVILRKAVQLTQALDTNTVGALLAEKMSQYASLLAAQGSIAAALAFLPDNTNQPNIVQLRDRLCKAQGKPVSGQESSQSPYERQPLSKGRPGPVAGHSQMPRVQTQQYYPHGENPPPPGFIMQGNVIPNPAAPLPTAPGHMPSQLPPYPQPQPYQPAQQYSFGTGGAAAYRPQQPVAPPASNAYPNTPYISPVASYSGQPQMYTAQQASSPTSSSAASFPPPSSGASFQHGGPGAPPSSSAYALPPGTTGTPPAASELPASQRTENQSFQDQASILEGPQNGWNDPPALNRVPKKKKMPENFMPPVPITSPIMNPSGDPQSQGLQQQPSTPGPLSSHASFPQQHLAGGQPFHGVQQPLAQTGMPPSFSKPNTEGAPGAPIGNTIQHVQALPTEKITKKPIPEEHLILKTTFEDLIQRCLSSATDPQTKRKLDDASKRLEFLYDKLREQTLSPTIINGLHSIARSIETRNYSEGLSVHTHIVSTSNFSETSAFMPVLKVVLSQASKLGV
WT + ISRIB/WT Cohen's d (WT MEF EVs): −1.34
ISRIB and DYT Parallel Direction (WT MEF EVs): YES
RTV Corrective Direction (DYT-TOR1A MEF EVs): YES
DYT + RTV/DYT Cohen's d (DYT-TOR1A MEF EVs): 5.50

B4: Mri1 (protein, UniProt Q9CQT1 1-369, looked up)
Methylthioribose-1-phosphate …: MTLEAIRYSPGSLQILDQLQLPEHCHYEALSSVQQASEAIRAMKVRGAPAIALVGCLSLAVELRAGAGGPGLAALVAFVRDQLRLLVAARPTAVNMARAARDLGQVAAQEAEREGATEETVRERVIRFAEDMLEKDLKDNRSIGDLGARHLLEQTNPRGGKVTVLTHCNTGALATAGYGTALGVIRSLHEMGRLEHTFCTETRPYNQGARLTAFELVYEQIPATLITDSMAAAAMAHRGVSAVVVGADRVVANGDTANKIGTYQLAIVAKHHGVPFYVAAPSSSCDLHLETGKEIVIEERPSQELTDLNGVRIAAQGIRVWNPAFDVTPHELITGGIITELGVFAPEELRGALSASVFSEGQTLDSPWV
WT + ISRIB/WT Cohen's d (WT MEF EVs): −0.01
ISRIB and DYT Parallel Direction (WT MEF EVs): YES
RTV Corrective Direction (DYT-TOR1A MEF EVs): YES
DYT + RTV/DYT Cohen's d (DYT-TOR1A MEF EVs): 5.85

B5: Itgb5 (protein, UniProt O70309 24-798, looked up)
Integrin beta-5: GLNICTSGSATSCEECLLIHPKCAWCSKEYFGNPRSITSRCDLKANLIRNGCEGEIESPASSTHVLRNLPLSSKGSSATGSDVIQMTPQEIAVSLRPGEQTTFQLQVRQVEDYPVDLYYLMDLSLSMKDDLENIRSLGTKLAEEMRKLTSNFRLGFGSFVDKDISPFSYTAPRYQTNPCIGYKLFPNCVPSFGFRHLLPLTDRVDSFNEEVRKQRVSRNRDAPEGGFDAVLQAAVCKEKIGWRKDALHLLVFTTDDVPHIALDGKLGGLVQPHDGQCHLNEANEYTASNQMDYPSLALLGEKLAENNINLIFAVTKNHYMLYKNFTALIPGTTVEILHGDSKNIIQLIINAYSSIRAKVELSVWDQPEDLNLFFTATCQDGISYPGQRKCEGLKIGDTASFEVSVEARSCPGRQAAQSFTLRPVGFRDSLQVEVAYNCTCGCSTGLEPNSARCSGNGTYTCGLCECDPGYLGTRCECQEGENQSGYQNLCREAEGKPLCSGRGECSCNQCSCFESEFGRIYGPFCECDSFSCARNKGVLCSGHGECHCGECKCHAGYIGDNCNCSTDVSTCKAKDGQICSDRGRCVCGQCQCTEPGAFGETCEKCPTCPDACSSKRDCVECLLLHQGKPDNQTCHHQCKDEVITWVDTIVKDDQEAVLCFYKTAKDCVMMFSYTELPNGRSNLTVLREPECGSAPNAMTILLAVVGSILLIGMALLAIWKLLVTIHDRREFAKFQSERSRARYEMASNPLYRKPISTHTVDFAFNKFNKSYNGSV
WT + ISRIB/WT Cohen's d (WT MEF EVs): 1.22
ISRIB and DYT Parallel Direction (WT MEF EVs): YES
RTV Corrective Direction (DYT-TOR1A MEF EVs): YES
DYT + RTV/DYT Cohen's d (DYT-TOR1A MEF EVs): −4.69

B6: Atp6v1h (protein, UniProt Q8BVE3 1-483, looked up)
V-type proton ATPase subunit H: MTKMDIRGAVDAAVPTNIIAAKAAEVRANKVNWQSYLQGQMISAEDCEFIQRFEMKRSSEDKQEMLQTEGSQCAKTFINLMTHISKEQTVQYILTMVDDMLQENHQRVSIFFDYAKRSKSTAWPYFLPMLNRQDPFTVHMAARIIAKLAAWGKELMEGSDLNYYFNWIKTQLSSQKLRGSGVAVETGTISSSDSSQYVQCVAGCLQLMLRVNEYRFAWVEADGVNCIMGVLSNKCGFQLQYQMIFSIWLLAFSPQMCEHLRRYNIIPVLSDILQESVKEKVTRIILAAFRNFLEKSTERETRQEYALAMIQCKVLKQLENLEQQKYDDEDISEDIKFLLEKLGESVQDLSSFDEYSSELKSGRLEWSPVHKSEKFWRENAVRLNEKNYELLKILTKLLEVSDDPQVLAVAAHDVGEYVRHYPRGKRVIEQLGGKQLVMNHMHHEDQQVRYNALLAVQKLMVHNWEYLGKQLQSEQPQTAAARS
WT + ISRIB/WT Cohen's d (WT MEF EVs): −0.66
ISRIB and DYT Parallel Direction (WT MEF EVs): YES
RTV Corrective Direction (DYT-TOR1A MEF EVs): YES
DYT + RTV/DYT Cohen's d (DYT-TOR1A MEF EVs): 4.82
